The assay concerns the target integrin α3β1 (human) (UniProt P26006). Put plainly: cell-based or functional assay.
Chain of UniProt P26006 (P26006 33-1051, chain 1 of 2): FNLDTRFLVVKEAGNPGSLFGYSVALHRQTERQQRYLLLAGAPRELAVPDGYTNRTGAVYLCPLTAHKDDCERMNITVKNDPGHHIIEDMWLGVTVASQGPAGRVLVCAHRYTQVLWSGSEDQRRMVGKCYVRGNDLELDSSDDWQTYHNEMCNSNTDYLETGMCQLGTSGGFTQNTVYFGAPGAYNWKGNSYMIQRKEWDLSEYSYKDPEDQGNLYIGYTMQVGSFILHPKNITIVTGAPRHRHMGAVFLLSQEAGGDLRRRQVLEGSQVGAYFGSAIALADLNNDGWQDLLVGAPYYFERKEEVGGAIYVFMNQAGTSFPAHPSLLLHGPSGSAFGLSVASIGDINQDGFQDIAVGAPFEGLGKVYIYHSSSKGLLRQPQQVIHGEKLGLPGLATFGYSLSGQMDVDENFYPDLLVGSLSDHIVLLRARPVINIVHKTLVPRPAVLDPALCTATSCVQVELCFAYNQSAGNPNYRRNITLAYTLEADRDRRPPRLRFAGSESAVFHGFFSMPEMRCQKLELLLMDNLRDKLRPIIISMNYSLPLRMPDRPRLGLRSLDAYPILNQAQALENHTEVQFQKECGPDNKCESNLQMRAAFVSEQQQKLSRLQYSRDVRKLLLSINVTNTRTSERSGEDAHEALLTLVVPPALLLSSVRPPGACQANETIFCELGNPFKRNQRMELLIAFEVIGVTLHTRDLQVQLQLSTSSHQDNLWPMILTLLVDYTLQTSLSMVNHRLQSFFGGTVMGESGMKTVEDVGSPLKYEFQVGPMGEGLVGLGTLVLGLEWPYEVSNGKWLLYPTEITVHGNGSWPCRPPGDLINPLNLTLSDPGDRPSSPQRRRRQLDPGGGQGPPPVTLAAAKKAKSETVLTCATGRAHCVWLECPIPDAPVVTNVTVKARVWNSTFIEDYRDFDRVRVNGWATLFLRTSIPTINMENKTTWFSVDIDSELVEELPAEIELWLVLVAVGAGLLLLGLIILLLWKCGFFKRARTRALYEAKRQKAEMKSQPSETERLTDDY
Chain of UniProt P26006 (P05556 21-798, chain 2 of 2, further chain): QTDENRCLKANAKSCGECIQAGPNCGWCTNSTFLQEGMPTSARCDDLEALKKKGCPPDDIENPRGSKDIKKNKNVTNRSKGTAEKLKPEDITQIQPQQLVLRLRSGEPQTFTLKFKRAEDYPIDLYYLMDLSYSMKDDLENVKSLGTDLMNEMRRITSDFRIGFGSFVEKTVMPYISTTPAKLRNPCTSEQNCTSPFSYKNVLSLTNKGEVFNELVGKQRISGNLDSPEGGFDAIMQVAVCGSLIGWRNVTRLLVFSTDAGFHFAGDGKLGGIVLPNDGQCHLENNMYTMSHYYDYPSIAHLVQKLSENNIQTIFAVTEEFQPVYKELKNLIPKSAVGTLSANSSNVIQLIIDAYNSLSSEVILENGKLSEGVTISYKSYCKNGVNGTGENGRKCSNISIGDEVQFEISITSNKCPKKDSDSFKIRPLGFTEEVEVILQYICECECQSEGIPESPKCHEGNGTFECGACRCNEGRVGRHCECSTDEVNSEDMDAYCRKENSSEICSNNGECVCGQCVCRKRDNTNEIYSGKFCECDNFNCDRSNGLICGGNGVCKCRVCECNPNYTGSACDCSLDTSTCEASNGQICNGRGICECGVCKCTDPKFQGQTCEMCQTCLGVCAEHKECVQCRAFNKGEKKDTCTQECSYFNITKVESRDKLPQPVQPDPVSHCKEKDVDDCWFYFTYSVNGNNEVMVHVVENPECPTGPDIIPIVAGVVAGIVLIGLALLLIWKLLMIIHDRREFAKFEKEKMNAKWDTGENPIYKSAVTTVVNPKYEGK

For the substance “recombinant laminin-10 (human α5β1γ1 heterotrimer, α5 chain with C-terminal FLAG epitope) (from UniProt P07942 22-1786; P11047 34-1609) (ligand)”, the inhibition of HT-1080 cell binding to r-laminin-10 by mAbs against either α3 or β1 is 80%.

Source of the values: patent US20030044899A1.
